Target: wild-type (WT) RBD of the SARS-CoV-2 spike protein (SARS-CoV-2, UniProt P0DTC2)
Experiment: ITC

Binder	Kd
LY-CoV555 ScFv (scFv, V domains shown) VH: QVQLVQSGAEVKKPGSSVKVSCKASGGTFSNYAISWVRQAPGQGLEWMGRIIPILGIANYAQKFQGRVTITADKSTSTAYMELSSLRSEDTAVYYCARGYYEARHYYYYYAMDVWGQGTAVTVSS VL: not shown	3.8 ± 1.9 nM
REGN-10987 ScFv (scFv, V domains shown) VH: QVQLVESGGGVVQPGRSLRLSCAASGFTFSNYAMYWVRQAPGKGLEWVAVISYDGSNKYYADSVKGRFTISRDNSKNTLYLQMNSLRTEDTAVYYCASGSDYGDYLLVYWGQGTLVTVSS VL: QSALTQPASVSGSPGQSITISCTGTSSDVGGYNYVSWYQQHPGKAPKLMIYDVSKRPSGVSNRFSGSKSGNTASLTISGLQSEDEADYYCNSLTSISTWVFGGGTKLTVL	34.3 ± 8.1 nM
